# Laboratory results as given in patent publication US20250011363A1, “OPTIMIZED SHORTENED PEPTIDE THAT BINDS TO ACETYLCHOLINE RECEPTOR, AND USE THEREOF” (SKINMED CO., LTD., priority 2021, published 2025).
# Target: acetylcholine receptor
# Assay: SPR, AchR immobilized on CM5 chip, peptide 10 uM
row,Binding affinity (RU),Binder
1,128 RU,RKQQQR [6mer-1-341]
2,153 RU,KKVFLK [6mer-1-354]
3,144 RU,RKSRRR [6mer-1-337]
4,142 RU,RKQRLK [6mer-1-348]
5,123 RU,KKRIYR [6mer-1-346]
6,153 RU,KKLQTK [6mer-1-350]
7,131 RU,RKRFCR [6mer-1-342]
8,135 RU,KKLYTK [6mer-1-343]
9,125 RU,KKSQCR [6mer-1-344]
10,154 RU,KRVVTK [6mer-1-336]
11,148 RU,RRSQRR [6mer-1-335]
12,126 RU,KKQQSK [6mer-1-347]
13,142 RU,RKVFRK [6mer-1-352]
14,147 RU,KKSIQK [6mer-1-339]
15,123 RU,KRLYSK [6mer-1-349]
16,127 RU,KKQVLK [6mer-1-338]
17,142 RU,KRLLCK [6mer-1-340]
18,126 RU,KRLYLK [6mer-1-353]
19,141 RU,RRGLRK [6mer-1-351]
20,147 RU,KKLLCR [6mer-1-345]

# Target: acetylcholine receptor
# Assay: SPR, receptor on CM5 chip, peptide 10 µM
row,Binder,Binding affinity (RU)
1,RKGRRK [6mer-1-487],121 RU
2,RRWYRR [6mer-1-485],126 RU
3,KRGYLR [6mer-1-493],131 RU
4,RKLFSR [6mer-1-502],146 RU
5,RRSLTR [6mer-1-479],135 RU
6,RKQVRK [6mer-1-482],133 RU
7,KKLFRR [6mer-1-490],133 RU
8,KRWRCK [6mer-1-481],133 RU
9,KRRLCK [6mer-1-503],151 RU
10,KRVLYK [6mer-1-501],154 RU
11,KKVITK [6mer-1-489],148 RU
12,KRRQLR [6mer-1-497],133 RU
13,KRQVTK [6mer-1-483],151 RU
14,RKLFYR [6mer-1-499],149 RU
15,RRWRQK [6mer-1-492],139 RU
16,RRSITR [6mer-1-504],122 RU
17,KRQQTK [6mer-1-477],145 RU
18,RRRLSK [6mer-1-506],151 RU
19,RRRFTR [6mer-1-505],148 RU
20,KKWYSK [6mer-1-488],135 RU
21,RKLRLR [6mer-1-491],137 RU
22,KKQFYK [6mer-1-480],121 RU
23,KRQVRK [6mer-1-486],151 RU
24,RKVRYK [6mer-1-478],139 RU
25,RKRQQK [6mer-1-498],139 RU
26,RKGFQR [6mer-1-495],126 RU
27,KKLFSR [6mer-1-494],128 RU
28,RRVYQR [6mer-1-496],148 RU
29,RKLQSK [6mer-1-500],151 RU
30,KKLYLR [6mer-1-484],154 RU

# Second part, the binder after the results:
row,Binding affinity (RU),Binder
1,154 RU,RKQIRR [6mer-1-513]
2,148 RU,KKGRQK [6mer-1-524]
3,127 RU,KRQIYK [6mer-1-520]
4,139 RU,RRQLRR [6mer-1-525]
5,128 RU,RKVISR [6mer-1-521]
6,139 RU,KRSYTR [6mer-1-528]
7,136 RU,RKVYRR [6mer-1-511]
8,135 RU,RRQFSK [6mer-1-508]
9,142 RU,KKGIYR [6mer-1-527]
10,139 RU,KKRFSR [6mer-1-516]
11,145 RU,RKWFSR [6mer-1-533]
12,126 RU,KKRLCR [6mer-1-534]
13,122 RU,KRRQSR [6mer-1-510]
14,139 RU,RRSQSK [6mer-1-507]
15,154 RU,RKWICK [6mer-1-512]
16,139 RU,KKGLCK [6mer-1-517]
17,126 RU,RKRRLR [6mer-1-522]
18,135 RU,RKGQTK [6mer-1-531]
19,153 RU,KRWVLK [6mer-1-518]
20,137 RU,KRLVSK [6mer-1-530]
21,128 RU,RKWLRK [6mer-1-509]
22,139 RU,RRSLCK [6mer-1-529]
23,148 RU,KRGYTR [6mer-1-526]
24,128 RU,KKGRSK [6mer-1-514]
25,139 RU,RRGLSR [6mer-1-515]
26,147 RU,KRRQCK [6mer-1-519]
27,139 RU,KRRRSK [6mer-1-523]
28,121 RU,KKSQLR [6mer-1-532]
